Reference: paper PMC11153153, “Membraneless channels sieve cations in ammonia-oxidizing marine archaea” (Nature, 2024)

Molecular target: the molecule itself
Experiment: cryo-EM structure; electron cryotomography and subtomogram averaging of the S-layer on intact N. maritimus cells; 3.3 Å at the centre of the hexamer, about 4.5 Å at the periphery

B1: Nitrosopumilus maritimus S-layer protein Nmar_1547 (NmSLP) (natural protein)
chain: MAANANLFVSAENSQFDNYMSGPQVIEVVVIDSDINDTDEAKGEPDVTVNGKVLRMVQAVDGNWYGYFADRDQAQIADSTATTADSGLDFGVFCASSSGTAALGFSTTETDGIAIPITIANATATGNGTQTGSSSGGAITTTCAANTLDASTANGTINVVREAKDPVAASGSVSVGQIGLKNGTANSGPNWPFIQLYELNPTGNVVVQYNKGGGVQSTTLTFDTVDQFAELSLDRTVFPRVSQVHATITDLWLNIDPTDEDSWTFATNTKNTTSSFNVDTFYQVFDENGASGGSALTLRTTLSSLMCEDNCVLTLDVDAQSSGTPVVTIQDNGDSILTQLNASSNTNANNASAFGISTETAKLGTGSIPVTITEQGPNSGVFGTYDESDKSVLKITDNAKRGTSASLDYNETPQTILVGFSFASIDIQPVTDEWTSGQEIPVVIVDADQNKNSRADEDLDLNNPDVTLIPALRTGDPFTIDEGGTPSLIFTNGTNGDDSIFDTGAINNTSAGQVGNFTLNINVTRFSSATNITSTESIDTFSKRLISAQTANSSANFDVDFAIIDLGSATLETLKETVVDEDNTAVGFNFFNYDVRSLGADTVSIALLNTTGNILPWVNNDTRNVDKNNAILLVSNSTNSQAYVDLTNAVSDAVYGSTNTDSNVNIGFAMYFTGVGDLAAKEVIVMDFFSFGFTDDGVQSSERFANQIIRIEAEETGDNTSTFEGSLEYVMVNQINIQDAGTFSGITPIADDPSFIVIEDLTDEDAPRVNYNDLGADGVTTPVSDQEEAPSHSGVVSLNADSYKIADTVVITVEDLDLNVDSDLIDIFTVVSDNSKATDDAVGSATTQSLSFGELGRLLDVTFDDVIWSTPDGANNTATGNDSDTCSTELSNAGITDTGLGATGFTLVETGAATGVFVGDFQIPSFWCRVSDTTTTPYTYAGDEETTTGLDIEVNYVDFRDASGEIVEVGDSAGVRANTGSVSLDRTVYPVPFGTIADSSKAANAAPNGRSVFPIHATGITSTIDSTEELPTGDLTIHVRINDPDFDENPAGEDAMDQDNALKISVIRGSDSVVLGYAGASERTGKIDVGGNNGTISNIRSFGEMDEIAPDAGIFELDVNIKFTDGPASAQCNSHDTLYTALDGTTGKADTNRFDDGAASGQEYCILQGDILQVEYTDPADASGDANTVTDSATFDLRNGVLQSDKSVYIIGSDMILTLIEPDFDLDNDSAETYDLDLIEWDSDAATTTMGNKGVTGAAAAFDPEPTDFRETGDSTGIFQIVIEIPESLSNDKLERGEEIILEYTDWGPSGSDYVGDEDEDVNLTIYTSNFGATVELDQKVYSWTDKVYITIVAPDHNFDSDLVDEIGETDSDPIKVSTRGFDLDNYKLVETGTDTGIFTGEVILTGFTAHDADGDGNTGDATGTTSGSGPTDGLLATDDDDGLTVSFEFSEDETIVGSALIRWNIGEVQWLEASYPASGTGVVRVIDPDMNLDPEAVDNFEVDVWSDSDAGGIDLTVTETNEATGIFEGTVFFTTLDESSGHRLRVSEGDTVTAEYEDNTLPDPYTTADELDITATSLIGTVVPPLERAPAANLRTVDAFGNSLDSVSVDQQVQISADLANGQDREQSFAYLVQIQDANGVTVSLAWITGSLSSGQSFSPALSWIPTEAGTYTATAFVWESVDNPTALSPPVSTTVNVS
modifications: 17 N-glycans per monomer on asparagine residues followed by a threonine or serine at the +2 position (positions not given)
- stoichiometry N: 6
